According to patent US20240294604A1:

How the values were obtained:
Conditions in all cases: remark: other sources report otherwise
[1] = target: T1, A Proliferation Inducing Ligand (APRIL) (human), O75888; assay: flow cytometry titration of soluble APRIL (about 0.0005 to 10 nM) on yeast displaying BCMA; one site specific binding fit, nM is the unit of the concentration axis
T1 chain: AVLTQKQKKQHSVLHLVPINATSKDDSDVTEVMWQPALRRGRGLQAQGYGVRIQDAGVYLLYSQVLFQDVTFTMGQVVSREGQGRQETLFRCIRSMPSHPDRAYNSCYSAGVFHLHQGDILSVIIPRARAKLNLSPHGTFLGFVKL

[2] = target: T1, A Proliferation Inducing Ligand (APRIL) …; assay: cell binding titration by flow cytometry; soluble APRIL varied to 10 nM on cells displaying the BCMA clone
[3] = target: T1, A Proliferation Inducing Ligand (APRIL) …; assay: binding assay of FIG. 1 (flow cytometry titration, one-site specific binding fit; format not stated); FIG. 1 legend, unit printed pM
[4] = target: BAFF; assay: cell binding titration by flow cytometry; soluble BAFF varied to 10 nM on cells displaying the BCMA clone; Kd and BP printed as N.D
[5] = target: T1, A Proliferation Inducing Ligand (APRIL) …; assay: flow cytometry titration of soluble APRIL on yeast displaying BCMA; one site specific binding fit; A.U. from the axis 'Cell binding (A.U.)'
[6] = target: T1, A Proliferation Inducing Ligand (APRIL) …; assay: cell binding titration by flow cytometry; soluble APRIL varied to 10 nM on cells displaying the BCMA clone; BP is not defined in the filing
[7] = target: T1, A Proliferation Inducing Ligand (APRIL) …; assay: binding assay of FIG. 1 (flow cytometry titration, one-site specific binding fit; format not stated); Example 4 results, unit printed µM

- Kd [1]: 0.0323 nM
- Bmax [2]: 6560 A.U.
- Kd [2]: 0.025 nM
- Kd [3]: 0.032 nM
- Bmax [4]: 78.3 A.U.
- Bmax [5]: 9930 A.U.
- BP [6]: 263
- Kd [7]: 0.032 nM
B1: wild type human BCMA extracellular domain (sBCMA WT ECD), Q02223 1-54 (receptor)
chain: MLQMAGQCSQNEYFDSLLHACIPCQLRCSSNTPPLTCQRYCNASVTNSVKGTNA
